According to patent publication US7767415B2, “Compositions and methods for modifying blood cell carbohydrates” (Velico Medical, Inc., priority 2001, dated 2010):
Where two headings read alike, the source gives them in different places.

Key:
[1] = system: Recombinant chicken liver α-N-acetylgalactosaminidase; conditions: apparent; pH 3.65, 37° C.; Zhu et al. 1996; cited from earlier work
[2] = system: E. coli expressed recombinant α-N-acetylgalactosaminidase (New England BioLabs, catalog no. P0734B, proprietary strain); assay: Apparent Km and Vmax with monosaccharide derivative (p-nitrophenol at 405 nm, Lineweaver-Burk), Table XI; format: biochemical; conditions: pH 7.0, 37° C.
Experimental: Commercial Recombinant α-N-Acetylgalactosaminidase (New England Biolabs): • vii) 0.5 mM as a starting concentration of αGalNAc p-nitrophenyl monosaccharide derivative in a tube containing 0.05 M Sodium phosphate buffer pH 7.0 was sequentially diluted 2 fold by mixing it with an equal volume of buffer. […] of enzyme was added to each tube and incubated for 10 min at 37° C. The reaction was quenched by adding an equal volume of 0.2 M sodium borate buffer (pH 9.8). The amount of the liberated p-nitrophenol was determined by measuring the absorbance at 405 nm.

[3] = system: R. torgues (Ruminococcus torques) α-N-acetylgalactosaminidase, isolated to apparent homogeneity; conditions: Hoskins et al. 1997; cited from earlier work
[4] = system: Recombinant coffee bean (Coffea canephora) α-galactosidase; conditions: apparent; pH 5.5, 26° C.; Zhu et al. 1995; cited from earlier work
[5] = system: E. coli expressed recombinant α-N-acetylgalactosaminidase (New England BioLabs, catalog no. P0734B, proprietary strain); assay: Preliminary Km with tetrasaccharide AMC substrate (densitometric scans of substrate/product ratio); format: biochemical; conditions: assay unreliable at low concentrations, Km possibly even lower than 20 μM, read-out: Km for the blood group A oligosaccharide substrates
Description: (§1) The assay used for this determination involved densitometric scans of the substrate/product ratio using the tetrasaccharide AMC substrate (GalNAcα1-3(Fucα1-2)Galβ1-4GalNAc-AMC).

[6] = Activity with blood group A tetrasaccharide AMC substrate (HPTLC); format: biochemical; conditions: for difference of specific activity, GalNAcα1-pNP versus A tetrasaccharide substrate: pH 3.65; for Specific activity with blood group A tetrasaccharide-AMC: pH 5.5
[7] = Activity with repetitive A heptasaccharide AMC substrate (HPTLC); format: biochemical
Experimental: FIG. 5b is an HPTLC analysis of five selected Streptomycete α-N-acetylgalactosaminidase activities with the blood group A tetrasaccharide (Panel B-1) and A heptasaccharide AMC (Panel B-2) substrate. Streptomycete strains identified by numbers as in Table VII. […] Reactions were incubated 180 min at 30° C., and 2.5 μl of the reaction mixture was spotted onto HPTLC and developed in CHCl3:methanol:H2O (60:35:8) and photographed. Migration of trisaccharide (H), and tetrasaccharide (A), heptasaccharide and hexasaccharide (H-A) AMC derivatives is indicated by arrows. NE, no enzyme control; rCHl-Az, recombinant Chicken liver A-zyme; Origin, sample application position. The appearance of a disaccharide AMC is due to contaminating α-fucosidase activity.
Aliquots of 2.5-3.0 μl were taken at different time points (0′, 15′, 30′, 60′) to follow product development. Product development was analyzed by HPTLC in chloroform-methanol-water (vol/vol/vol: 60/35/8) and visualized by UV or orcinol staining.

[8] = Activity with blood group A tetrasaccharide AMC substrate (HPTLC); format: biochemical
Experimental: FIG. 10 illustrates the activity of E. coli expressed α-N-acetylgalactosaminidase with the blood group A tetrasaccharide AMC substrate at different pH. Assays were performed in reactions of 10 μl containing 1 nmole of α-tetra, 0.05 μg enzyme, and the buffer Na Citrate-NaPO4 at varying pH 2.6-8.0. Reactions were incubated 40 min at 26° C., and 3 μl samples analyzed by HPTLC. Panel A: HPTLC analysis; Panel B: Substrate cleavage quantified by scanning and plotted against pH.
Assays with Derivatized oligosaccharide substrates (AMC, OGr) were performed by the following procedure: • iii) One (AMC) or 5 (OGr) nmol substrate in reaction mixtures of a total volume of 10 μl containing 50 mM sodium citrate (pH 6.0) was incubated at 26° C. Aliquots of 2.5-3.0 μl were taken at different time points (0′, 15′, 30′, 60′) to follow product development. Product development was analyzed by HPTLC in chloroform-methanol-water (vol/vol/vol: 60/35/8) and visualized by UV or orcinol staining. […]
as §1

[9] = cited from earlier work; for Specific activity with GalNAcα1-pNP: pH 3.65 (optimal pH)
A1 red blood cells = assay: Enzymatic conversion of A1 red blood cells, hemagglutination typing; format: cell-based, human; conditions: A1 donors; chicken enzyme 200 U/ml, 50% hematocrit, 37° C., 4 hours (protocols B, C)
Description: (§2) It is evident from the data in Table XII that apparent removal of A antigens is achieved, when defined by one particular anti-blood group A specific monoclonal antibody that is not approved for blood typing procedures (DAKO). A large number of such antibodies exist and, due to specificity and low affinity binding, they are inappropriate for serological typing purposes. Development of monoclonal cocktails for ABO routine typing to substitute previously used polyclonal antibody reagents was a major achievement for the blood bank industry in 1990s. […] Details of the typing assay used in this example is as follows: • Approved typing reagents used in hemagglutination assays were murine monoclonal antibodies and plant lectins obtained from Ortho Clinical Diagnostics, Raritan, N.J.; Gamma Biologicals/Immucor, Norcross, Ga. Non-approved reagents included murine monoclonal anti-A antibody from Dako and a panel of monoclonal antibodies to blood group A variants produced by H. Clausen (Clausen et al., Proc. Natl. Acad. Sci. USA 82(4): 1199-203, 1985, Clausen et al., J Biol Chem. 261(3): 1380-7, 1986, Clausen et al., Biochemistry 25(22): 7075-85, 1986, Clausen et al., J Biol Chem. 262(29): 14228-34, 1987). Typing reagents were used according to the manufacturers recommendations and other monoclonal antibodies as determined by titrations. Hemagglutination Assay (Room Temperature) 1. […]

A2 red blood cells = assay: Enzymatic conversion of A2 red blood cells, hemagglutination typing; format: cell-based, human; conditions: A2 donors; chicken enzyme 100-200 U/ml, protocols A-C (pH 7.4 or 5.5, 30-37° C., 180 min to 4 hours)
Description: as §2

[10] = Dean and Sweeley 1979; cited from earlier work
[11] = listed as chicken α-N-acetylgalactosaminidase
[12] = listed as recombinant chicken α-N-acetylgalactosaminidase

CC(=O)N[C@H]1[C@@H](Oc2ccc([N+](=O)[O-])cc2)O[C@H](CO)[C@H](O)[C@@H]1O [GalNAcα1-pNP, p-nitrophenyl-α-D-N-acetylgalactosaminopyranoside]
Km [1]: 827 µM | Vmax [1]: 60.9 U/mg^3 | Km [2]: 10 to 50 µM | Vmax [2]: 3.3 U/mg^3 | Km [3]: 2000 to 8000 µM

O=[N+]([O-])c1ccc(O[C@H]2O[C@H](CO)[C@H](O)[C@H](O)[C@H]2O)cc1 [Galα1-pNP, p-nitrophenyl α-galactoside]
Km [4]: 363 µM | Vmax [4]: 46.9 U/mg^1

GalNAcα1-3(Fucα1-2)Galβ1-4GalNAc-AMC
Km [5]: ~20 µM

B1: Recombinant Chicken Liver α-N-acetylgalactosaminidase: Chicken liver α-N-acetylgalactosaminidase, recombinant, expressed in P. pastoris; prior-art enzyme for A cell conversion (protein, UniProt Q90744 1-405, looked up)
Alpha-N-acetylgalactosaminidas …: LENGLARTPPMGWLAWERFRCNVNCREDPRQCISEMLFMEMADRIAEDGWRELGYKYINIDDCWAAKQRDAEGRLVPDPERFPRGIKALADYVHARGLKLDIYGDLGRLTCGGYPGTTLDRVEQDAQTFAEWGVDMLKLDGCYSSGKEQAQGYPQMARALNSTGRPIVYSCSWPAYQGGLPPKVNYTLLGEICNLWRNYDDIQDSWDSVLSIVDWFFTNQDVLQPFAGPGHWNDPDMLIIGNFGLSYEQSRSQMALWTIMAAPLLMSTDLRTISPSAKKILQNRLMIQINQDPLGIQGRRIIKEGSHIEVFLRPLSQAASALVFFSRRTDMPFRYTTSLAKLGFPMGAAYEVQDVYSGKIISGLKTGDNFTVIINPSGVVMWYLCPKALLIQQQAPGGPSRLPLL
difference of specific activity, GalNAcα1-pNP versus A tetrasaccharide substrate [6, 11]: over 100 fold | difference of specific activity, GalNAcα1-pNP versus A tetrasaccharide substrate [6, 12]: 166 fold | Specific activity with blood group A tetrasaccharide-AMC [6, 11]: 0.2 U/mg | Specific activity with blood group A tetrasaccharide-AMC [6, 12]: 0.2 U/mg | Specific activity with repetitive A heptasaccharide-AMC ([7]; pH 3.65): 0.5 U/mg | Specific activity with repetitive A heptasaccharide-AMC ([7]; pH 5.5): 0.4 U/mg | specific activity with repetitive A type 3 AMC derivative (structure 6) ([7]; pH not stated): approximately 0.3 U/mg | pH optimum with the blood group A tetrasaccharide AMC substrate ([8]; not shown): 3.5-4.5 | Specific activity with blood group A tetrasaccharide-AMC ([8]; pH 3.65): 0.5 U/mg | Specific activity with blood group A tetrasaccharide-AMC ([8]; pH 3.65, listed as chicken α-N-acetylgalactosaminidase): 0.3 U/mg | Specific activity with blood group A tetrasaccharide-AMC ([8]; pH 3.65, listed as recombinant chicken α-N-acetylgalactosaminidase): 0.3 U/mg | Specific activity with blood group A tetrasaccharide-AMC ([8]; pH 5.5): 0.4 U/mg | specific activity with A type 2 tetrasaccharide AMC derivative (structure 3) ([8]; pH not stated): approximately 0.3 U/mg | specific activity using p-nitrophenyl αGalNAc as substrate ([9]; literature values, pH not stated): 51-56 U/mg | Specific activity with GalNAcα1-pNP [9]: 50 U/mg^3 | Specific activity with GalNAcα1-pNP [9, 11]: approximately 50 U/mg | Specific activity with GalNAcα1-pNP [9, 12]: approximately 50 U/mg | Agglutination, Dolichos biflorus, post enzyme treatment (A1 red blood cells): 0 | Agglutination, Dolichos biflorus, post enzyme treatment (A2 red blood cells): 0

B2: human α-N-acetylgalactosaminidase: human α-N-acetylgalactosaminidase (alpha-galactosidase B), isolated, cloned and expressed (protein, UniProt P17050 18-411, looked up)
Alpha-N-acetylgalactosaminidas …: LDNGLLQTPPMGWLAWERFRCNINCDEDPKNCISEQLFMEMADRMAQDGWRDMGYTYLNIDDCWIGGRDASGRLMPDPKRFPHGIPFLADYVHSLGLKLGIYADMGNFTCMGYPGTTLDKVVQDAQTFAEWKVDMLKLDGCFSTPEERAQGYPKMAAALNATGRPIAFSCSWPAYEGGLPPRVNYSLLADICNLWRNYDDIQDSWWSVLSILNWFVEHQDILQPVAGPGHWNDPDMLLIGNFGLSLEQSRAQMALWTVLAAPLLMSTDLRTISAQNMDILQNPLMIKINQDPLGIQGRRIHKEKSLIEVYMRPLSNKASALVFFSCRTDMPYRYHSSLGQLNFTGSVIYEAQDVYSGDIISGLRDETNFTVIINPSGVVMWYLYPIKNLEMSQQ
pH optimum [10]: 3.5
